# Test results: US20240100159A1, “USE OF IL-7R-ALPHA-GAMMA AGONIST PEPTIDES IN CELL MANUFACTURING” (MEDIKINE, INC., priority 2022, published 2024)
# Bridge positions count the residues as written; N and C are the ends. Ends that are not written are not given here.
# T1: hu-IL-7Rα subunit (human, UniProt P16871 21-239, limits assumed)
# T1 construct: also called human interleukin-7 receptor subunit α; CD127
# T1 sequence (looked up): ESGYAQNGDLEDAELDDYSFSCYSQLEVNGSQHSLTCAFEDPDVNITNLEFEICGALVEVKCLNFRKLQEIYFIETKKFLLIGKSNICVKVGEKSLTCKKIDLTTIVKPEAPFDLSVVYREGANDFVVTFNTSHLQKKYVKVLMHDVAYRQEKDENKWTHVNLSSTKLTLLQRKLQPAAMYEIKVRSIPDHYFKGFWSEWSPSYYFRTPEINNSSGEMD
# T2: hu-IL-7Rγc subunit (human, UniProt P31785 23-262, limits assumed)
# T2 construct: also called human Rγc subunit; common γc receptor
# T2 sequence (looked up): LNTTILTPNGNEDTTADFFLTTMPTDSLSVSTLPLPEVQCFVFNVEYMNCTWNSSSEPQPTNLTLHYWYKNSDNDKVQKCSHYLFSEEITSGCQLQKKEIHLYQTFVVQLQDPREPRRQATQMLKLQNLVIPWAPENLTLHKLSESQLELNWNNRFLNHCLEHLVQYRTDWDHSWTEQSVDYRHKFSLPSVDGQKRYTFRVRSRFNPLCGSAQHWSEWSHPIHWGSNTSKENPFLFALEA
# T3: hu-IL-7Rα subunit (human), P16871
# T3 chain: T1 sequence (looked up)
# T4: hu-IL-7Rγc subunit (human), P31785
# T4 chain: T2 sequence (looked up)
# T5: IL-7Rα subunit (Homo sapiens, UniProt P16871)
# T5 sequence (P16871 21-459): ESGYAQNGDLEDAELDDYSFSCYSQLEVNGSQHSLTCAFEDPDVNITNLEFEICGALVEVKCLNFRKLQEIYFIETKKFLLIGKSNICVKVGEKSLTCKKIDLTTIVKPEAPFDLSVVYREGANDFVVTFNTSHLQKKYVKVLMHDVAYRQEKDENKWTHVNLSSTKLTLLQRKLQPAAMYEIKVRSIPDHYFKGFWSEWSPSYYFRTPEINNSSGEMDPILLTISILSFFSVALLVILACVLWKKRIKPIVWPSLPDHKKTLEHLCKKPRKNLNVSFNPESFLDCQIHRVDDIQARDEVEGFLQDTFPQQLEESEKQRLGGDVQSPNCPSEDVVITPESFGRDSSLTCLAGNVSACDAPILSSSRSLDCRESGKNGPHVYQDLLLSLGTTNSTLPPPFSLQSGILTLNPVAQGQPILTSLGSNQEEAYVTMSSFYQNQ
# T6: IL-7Rγc subunit (Homo sapiens, UniProt P31785)
# T6 sequence (P31785 23-369): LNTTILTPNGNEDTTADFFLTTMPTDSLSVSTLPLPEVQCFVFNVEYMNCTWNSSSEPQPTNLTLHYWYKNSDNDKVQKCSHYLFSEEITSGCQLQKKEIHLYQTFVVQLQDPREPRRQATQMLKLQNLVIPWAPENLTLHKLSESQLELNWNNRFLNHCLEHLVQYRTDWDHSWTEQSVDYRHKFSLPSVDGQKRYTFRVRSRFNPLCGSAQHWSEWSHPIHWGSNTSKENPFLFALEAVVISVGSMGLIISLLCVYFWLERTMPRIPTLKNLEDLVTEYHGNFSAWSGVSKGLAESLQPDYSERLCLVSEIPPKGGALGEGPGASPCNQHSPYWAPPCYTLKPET
# Biological target: T1, hu-IL-7Rα subunit
# Assay: phage ELISA competition assay
# Conditions: not given
row,Molecule,IC50 [µM]
1,IRSCLWQPGALHCTWWAEEEPV (also called IL-7Rα ligand) [SEQ ID NO 103],< 10
2,VHRIPWCTLDPGGLQCAWLRQM (also called IL-7Rα ligand) [SEQ ID NO 114],< 10
3,QCVHWDLDTLFGCIREQLEL (also called IL-7Rα ligand) [SEQ ID NO 109],< 10
4,KAGSWFIPWCTLDPGSLQCAFL (also called IL-7Rα ligand) [SEQ ID NO 105],< 10
5,HCKHWDLESLLLCV (also called IL-7Rα ligand) [SEQ ID NO 101],< 10
6,QCIHWDIETLLSCV (also called IL-7Rα ligand) [SEQ ID NO 107],< 10
7,SAKVLKQCLHWDLESLLSCL (also called IL-7Rα ligand) [SEQ ID NO 111],< 10
8,RHFDDIIPWCTLDPGSLQCAYL (also called IL-7Rα ligand) [SEQ ID NO 110],< 10
9,HCLHWNIETLMSCVYGNFEE (also called IL-7Rα ligand) [SEQ ID NO 100],< 10
10,QCIHWDLESLLNCLRELKEP (also called IL-7Rα ligand) [SEQ ID NO 108],< 10
11,NPFRSVVPWCALDPGSLQCAWL (also called IL-7Rα ligand) [SEQ ID NO 106],< 10
12,HLGVPWCTLDPGSIQCAWLAKH (also called IL-7Rα ligand) [SEQ ID NO 102],< 10
13,WVTIPWCILDPGSLQCEWQTKV (also called IL-7Rα ligand) [SEQ ID NO 115],< 10
14,IPWCLLDPGGLQCVWL (also called IL-7Rα ligand) [SEQ ID NO 104],< 10
15,VPWCMLDPGSMQCAWL (also called IL-7Rα ligand) [SEQ ID NO 113],< 10

# The remaining lines, values ahead:
row,IC50 [µM],Molecule
1,< 10,GWGIPWCTLDPGSLQCAWLGKH (also called IL-7Rα ligand) [SEQ ID NO 116]
2,< 10,YRSGHGIPWCMLDPGGLQCSWL (also called IL-7Rα ligand) [SEQ ID NO 117]

# Biological target: T2, hu-IL-7Rγc subunit
# Assay: phage ELISA competition assay
# Conditions: not given
row,IC50 [µM],Molecule
1,< 100,"GGVVCQDWEGVELCWQGG (disulfide 5-14 (inferred), also called Rγc ligand) [SEQ ID NO 327]"

# Biological target: T2, hu-IL-7Rγc subunit
# Assay: not stated; binding to the specific binding site on the IL-7Rγc subunit
# Conditions: not given
row,IC50 [µM],Molecule
1,< 10,RTCTEWENVVLCWV (also called Rγc ligand) [SEQ ID NO 462]
2,< 10,MCWLEWGEWVGSCL (also called Rγc ligand) [SEQ ID NO 463]
3,< 10,CPSMLQGPERTWVC (also called Rγc ligand) [SEQ ID NO 464]

# Biological target: T3, hu-IL-7Rα subunit (human), P16871
# Assay: not stated; binding to a unique binding site on the IL-7Rα subunit
# Conditions: not given
row,IC50 [µM],Molecule
1,< 10,VYCAEIGEYRVCRQ (modifications not checked) [SEQ ID NO 456]
2,< 10,YMACSSGLSLCRLS (modifications not checked) [SEQ ID NO 457]

# Biological target: T4, hu-IL-7Rγc subunit (human), P31785
# Assay: phage ELISA competition assay
# Conditions: not given
row,IC50 [µM],Molecule
1,< 100,VVCQDWEGVELCWQGG (modifications not checked) [SEQ ID NO 325]
2,< 100,VVCQDWEGVELCWQ (modifications not checked) [SEQ ID NO 261]
3,< 100,GGVVCQDWEGVELCWQ (modifications not checked) [SEQ ID NO 326]

# Biological target: T4, hu-IL-7Rγc subunit (human), P31785
# Assay: not stated; binding to the specific binding site on the IL-7Rγc subunit
# Conditions: not given
row,IC50 [µM],Molecule
1,< 10,KVCEMWGGVLLCWN (modifications not checked) [SEQ ID NO 461]

# Biological target: T4, hu-IL-7Rγc subunit (human), P31785
# Assay: not given
# Conditions: not given
row,IC50 [µM],Molecule
1,< 100,VVCQDWEGVELCWQ (modifications not checked) [SEQ ID NO 261]

# Biological target: T5, IL-7Rα subunit
# Assay: Competitive binding assays, unique binding site on the IL-7Rα subunit
# Conditions: against IL-7Rα ligands SEQ ID NO: 455-459
# Text: The unique binding site of the IL-7Rα subunit for these IL-7Rα ligands can be characterized using competitive binding assays as described, for example, in Example 12.
row,competition for binding to the unique binding site on the IL-7Rα subunit with the group of IL-7Rα ligands,Molecule
1,does not compete,V V C Q D W E G V E L C W Q (VVCQDWEGVELCWQ) [SEQ ID NO: 261]

# Biological target: T1, hu-IL-7Rα subunit
# Assay: not stated; binding to a unique binding site on the IL-7Rα subunit
# Conditions: not given
row,IC50 [µM],Molecule
1,< 10,QCIHWDIETLLSCV (also called IL-7Rα ligand) [SEQ ID NO 455]
2,< 10,"GGVPWCTLDPGSLQCAWF (not fully specified (bridges); cysteine pairing not given here, also called IL-7Rα ligand) [SEQ ID NO 459]"
3,< 10,QCVHWDLDTLFGCIREQLEL (also called IL-7Rα ligand) [SEQ ID NO 458]

# Biological target: T6, IL-7Rγc subunit
# Assay: Competitive binding assays, specific binding site on the IL-7Rγc subunit
# Conditions: against Rγc ligands SEQ ID NO: 461-465
# Text: The specific binding site of the IL-7Rγc subunit for these Rγc ligands can be characterized using competitive binding assays.
row,competition for binding to the specific binding site on the IL-7Rγc subunit with the group of Rγc ligands,Molecule
1,does not compete,SEQ ID NO: 460: An IL-7Rα ligand having the amino acid sequence of SEQ ID NO: 460; sequence not printed in the text (YDCRIAQVGELCDL)
